Test results from the DeepSol protein solubility set.

Assay: soluble on expression in E. coli; label from the status in PepcDB or PDB records

Soluble on expression in E. coli, not soluble:
MVAKISVGSSLFGALSYNQNKVDEEQGKVLLSNRMFESEDGNFSIRRCMECFDIHLPADLKTEKPIIHISLNPHPDDVLLDSQLADIAKEYMDKLGYGNQPYIVYKHEDIARHHIHIVSIRVDDTGKKINDKFEHIRSKQITRELEQKYGLHPAEKKQAAERPELKKVDYRAGDVKHQLSNTVKALASSYRFQSFTEYKALLSIYNVQAEEVKGEVNGKPYNGIVYSATNDKGEKQGNPFKSSSLGKSVGYEAIQRHIKKSTKDIQGKNLKERTRRTVGAVMKSTYNRKELEQELKKKGIDVLFRQNDTGRIYGVTFIDHENRTVLNGSRLGKDFSANVFNNLFSGSRTLTGNSKQEMQEHTPEFNSTGHLENTGKTIAGLFSLLSGGNDTPPDNSQVPPSKKRKKKKQRRILEHHHHHH
MVAPSFPLFNLPQKNLKDVFCNMSVIQQTCISLISEKTRNLVREFHIFKQLQVCLDFIFLPDYHFYLKGSAKFIFIPHNRKFIARSSSGEHSNYSVPQFDAKSWLKHLIYIFNVTEIHSLRSRFFDWDLREPRLKMPKECLKNLKILNLSIGFTNKISLVVELYSAFQHIKKFSLRQYSHKPLDSTLLLELRHLLSKTNQQLCLNINLPLNELLLTSCSSIDIHRTQLTDKDINVFLKHWFAGLKPELEHFRVRKDGPAFNQKTILKGIPHEFASIGRKFKLFEMDSQVGGIDIDLGQDIKATLVFNHKPGIADFSVAVHNSKYFFC
MVARISVGKNLYGALAYNQNKVDEGGAKVLSAHLLRYPEDGRFRPDESVRQFLEWMPNHYRTEKPVIHISLNPHPDDVLTDGQLAEIGREYMQRLGYGNQPYLVFKHEDIGRHHIHIVSLRVDSEGRKVSDKFEYRRSKEITELLEQKYGLHPAEGRKKGEEWQLKPVDVAKGDIKRQIACTLKPLLELYSFRTMGELRALLSLYNIGVEEVKGEIGGRTYHGILYTALDGNGETAATPIKSSRLGRTAGAQQLDRKMRESAARIKSAPCRERLRPLVADALRQSVDERDFRDRLAKEQIDLVLRRNGTDRIYGVTFIDHRSRTVLNGSRLGKEFSANMLNGHFQEQPPNSLSPLLPPVPSAVASGNGEKIPGGLLSDMEPELNYVPRYPKLLKPDKKKRRRRYGRQD
MVDGEGITPKTCSEDIIKDLLNDVKSSEKPFSVDKLAGCDQTDFVGKRPKKHHRHKSKKSKKVRRRSKTWSSSRSRSRSRSRSRGRSQERRRSRKSRKSRSRSRLKHREEKIEKKNLEKAPKNELIPQAPSTENGKPKEFKEPPRKDEADDLPLGADFSTPLVKKETKLAISITTVLPKAENKKEVEDGEIEEIAYGDGDFKEPEGIEKNLENKNICENGNLDNSENEKSKEKDKNRKKEKTERKRKRSHSSSDRRGRRTSKESRRRSRSRDTHRTRRRSPERSRRSTETRNERPERPSRWRSRSRERKEYDSYRRRRSRSREVIDKEKLLAIAKTKRAEMMSNGDRDSASIEDFVTYCKKLQRRQEREKRREAGHDVSDHDSDRETVRYKHPYAMPKEPIRINIVTATSANLAQKAITGPEEPTQLGAAQLRIVFPVSSGAVHKENAEWVPVEKEDVPKSCSVEQKKHVALTSLEIDRCRAQGIPVAPAPVPKFLNSILPPPPAPPQFLPNPTDSFRPPTPPPLPSVLYVPNKDQMILKEPKDIPIPAPSDIGKVLKQRTEAQRKVLSTPNDFDAHRALREANEQISLWAALKSLPGEYTGTTGLRLLTADELQPQNPKYHAWVKKDQFRNAAPATGGIGRLMLEKMGWRPGEGLGKDATGNLEPLMLDVKSDRKGLIAEEEMSIKQRNKINAQNNVPVDLSNKNPISLIMELCAKRRWNPPSFSCEESGADHLKMFVWTIVINDVEYRPMCGSKQKKEGKAVAAQVALQSLGVLPMDPNLPVYM
MVDIEALQKAIGVTSLSYDEDDDDDDENDAFYSSSHRVSHNYNQPPLPPIPTRDDMSNYSSSRNTPLVRRD
MVDSDDDGDRRRDKFARERRDEDYRRGGGGFNRYDNKRPGGRRDDYQVKRSRGDDADDSFDPVSRSGNGSDLPTESDSIYSGPLQTFKKFLTSQEDDISEEDAIKKYNEYKTEHRKHQLERFFRAHKDEEWFRLKYKPDDAKKLREAHLENVQKRLQVFNELKEQGQFNKFSLDFGDAEAIIRMLDSVVVKLENGTEDELKAVLAQKLEDESLADIKKDENGNGTEQPKEEPEVKQESGATEELEEGAIEDGTEKSSNKVNIHRTCSVFLRNIPPGLTYEELEGLCKKSPGFLRLALTDGIAERKFYRRGWATFKRDINIKEICWALNAHRLRETDLNAIINRDITRRVRTNNGIASHKQVAINDLKLAVKLTVLYDKKIGLFNAADEADADREMDIRMGVDLVAASTNPLIKEVKSLVPHDVLNDISEEEAELLGVSNGGEAPAEKIRFERDDNILKALDLLIVYLRIVHSIDFYNHGHYAQEDSMPNRCGLIHVRGQPPSGVSITTDEDGALVVPQKFVNDFISGFNSRIEKGLIEKQYVSEEELEKMGKKDGEKEVEAFIQKNTVELAKDKWLCPLSGKKFKGPEFIRKHLQSKHEDKLEEARAEADFFNNYLADAQRPVDCEPKQAPRDDHRGGGGGERGGYGRERDDDRGPGGGGRNSFGGGGYDRRPQFPPRHSLGGRGGGGRYFEDAPRRQPVSYRDLDAPDDIP
MVGGMMESYSKFHTILNELKHSAAQFDRQRGEHHRPLFDEVLFHCHGKLLTPCVEEAHSTLQALIREKESGRLTALRAEYLSERLLAQIAALTRELSTQNVRRNEPKPHAYFKKPINELYQELAQHQDWERRLMDLVRDKALLLEQASATEKAAAQQALLQSEQRLNRCREAKIKIEKRITTQERKA
MVHRLDISSEMIAFFKNCAKNGNYTPFLSNYRGLIRDIGQQLEKVSLPNNSLEKLMVKHFANCFVALHTMNSLDELAASAPKFVADFKQAIGNKKTLKELHDNFKSSDTKQQGLNRKLTNKMERNRSEMKQFKMEMMSSFNGLKQNMDTKMEEMMQLMRALIQDLTSQKLAQNPESSKCSFPNYGLEIQKKFEDMIQNMKSQTGSVFELKLKEIEQLEAEAENTIPKIPKKAAGSSSEH
MVHYKVSYFPIRGAGEIARQILAYAGQDFEDNRIPKEEWPAVKPSTPFGQLPLLEVDGKVLAQSHAIARYLARQFGINGKCAWEEAQVNSVADQFKDYLNEVRPYFMVKMGFAEGDLDALAKDVFLPGFKKHYGFFANFLKSAGSGYLVGDSLTFVDLLVAQHTADLLAANAALLDEFPQFKAHQEKVHSNANIKKWLETRPVTPF

Soluble on expression in E. coli, soluble:
MVALSNALSRVFGSLAGYKFPSFIQKGINALYVKIFKIDLSEFEPLENYRSLNALFTRSLKKERPFDKSPNICIAPCDALITECAFLDNDSALQIKGMPYKAHELVGEINPLSPSFFYANFYLSPKDYHHYHAPCDLEILEARYFAGKLLPVNKPSLHKNNNLFVGNERVTLVAKDIQGNRLYFVAVGALNVGKMRFNFDKNIQTNAKARFTQTYSYNPPIKVKKGDNLGNFEMGSTIVLFIQNTAFKDLKEKNVKFGESIGEFHANLEHHHHHH
MVCQHNDELEALVKKAKKVTDKGEVASYIPALAKADKHDLSVAIYYSNNVCLSAGDVEKTFTLQSISKVLSLALVLMEYGKDKVFSYVGQEPTGDPFNSIIKLETVNPSKPLNPMINAGALVVTSLIRGRTVKERLDYLLSFIRRLTNNQEITYCREVAESEYSTSMINRAMCYYMKQYGIFEDDVEAVMDLYTKQCAIEMNSLDLAKIGSVFALNGRHPETGEQVISKDVARICKTFMVTCGMYNASGEFAIKVGIPAKSGVSGGIMGISPYDFGIGIFGPALDEKGNSIAGVKLLEIMSEMYRLSIFLEHHHHHH
MVEEFKVTPWEVEGVVDYDKLIKHFGTSPLTEDLLEKTAELTKSELPIFFRRKFFFSHRDYDLILKDYEEGRGFFLYTGRGPSGPMHIGHIIPFFATKWLQEKFGVNLYIQITDDEKFLFKENLTFDDTKRWAYDNILDIIAVGFDPDKTFIFQNSEFTKIYEMAIPIAKKINFSMAKAVFGFTEQSKIGMIFFPAIQIAPTFFERKRCLIPAAIDQDPYWRLQRDFAESLGYYKTAALHSKFVPSLTSLSGKMSASKPETAIYLTDSPEDVEKKVWKFTLTGGRPTLKEQREKGGEPEKCVVFKWLEIFFEEDDKKLKERYYACKNGELTCGECKRYLISKIQEFLKEHQRRRKKAEKLVEKFKYTGKLAQEMWNEAIPEPLKRSHHHHHH
MVEIFNEIMQRVKEAETIIIHRHVRPDPDAYGSQLGLKLYLERKFPEKNIYATGEAEPSLSFIGDLDEIDDSVYSDALVIVCDTANAPRIDDQRYLNGQSLIKIDHHPATDQYGDVNFVNTEASSTSEIIFDFISHFNDLSIIDEHVARVLYLGIVGDTGRFLFSNTSPHTMEVASQLLAYPFNHNAELNKMSEKDPKLMPFQGYVLQNFELSDSHEYCQIKITNDVLKQFDIQPNEASQFVNTVADISGLKIWMFGVDEGDQIRCRIRSKGITINDVANQFGGGGHPNASGVSVYSWDEFEELAQALRQKLLEHHHHHH
MVEKPKDIKIAQESFPILVAENIYHCGYHSEKSYGAASYLIQHSQGNILVDSPRFTPPLVKRIEAMGGIKYMYLTHQDDVADHQKFAEHFQCQRILHTDEISAGTRNVEIQLTGLEPFPLQPDVLIIPVPGHTKGHTVLLYKNKFLFTGDHLAWSENRHQLTAFRDVCWYSWAEQIKSMRRLADYSFDWVLPGHGRRFHADVETMRQQMHKCIELMTDERQPLTFNSLEHHHHHH
MVFKSKKDKFSEMLMNVSENLKEGAQFFVEYKIKNASDLKEFSMRMKEYESKGDSFIHEIIMELNKAFITPIEREDILQLAMSMDDVLDGLDHSAGLFEMYSITEADEYMIKFVEAINQCAIEIANSVELMSNKKLVDIRTNAIKIKDYESQCDDIRRHAIKNLFSREKDPIKIIQFKEIYEELEEVADSCQSVANVLETIIMKNALEHHHHHH
MVGIHQEVWLEVDLEFTKKMKIPVVRRDLGGGTVVITPGEHDYFIVVRQEDAPRNPSELYKKFLTPIVNVLRSYGLKADLRDQDIVVNGKKISGNGAMTHGNSIVIAGNILLSLDIDL
MVGIQVQEVMTDKYAKIDISAPLSEAIGIIEKEDPDLILVFDDNVYKGVLTQDLIIRSHLKWDPTKAKVRDIYKPAPVVKPTDDLSHAAKLLLETDLRSLPVGENKAEIIGVISDIALLERVVAEEFGKKKVEEFMTKDVITLTPDDTVAKALAVMRDHGISRIPIVNEEGKLEGLVTLHDLILRFIKPRFKAQTGELVGEKIPPFSMKLREAMIRGVITILPTATVREAVATMKDNDIDGLVVVDEGNKVVGILTVKDLLLPISRMVEKEAKFYLQLGGDASALSDFTRERIINDIKKFVDGYSDLLGNEGIIYLYIRRFNEKFRGVHLYQARMRIVTDKGVFIARGETWGAIQAVHDAIRAIERQLLQKAELERDIRYAKRFIEKLELWR
MVGQREPAPVEEVKPAPEQPAEPQQPVPTVPSVPTIPQQPGPIEHEDQTAPPAPHIRHYDWNGAMQPMVSKMLGADGVTAGSVLLVDSVNNRTNGSLNAAEATETLRNALANNGKFTLVSAQQLSMAKQQLGLSPQDSLGTRSKAIGIARNVGAHYVLYSSASGNVNAPTLQMQLMLVQTGEIIWSGKGAVSQQLEHHHHHH
